Data on one protein can be found in patent US20250115656A1 (Stanford University, published 2025).

This data set concerns the molecule itself. Briefly: cryo-EM in detergent; HS-AFM in lipid bilayer. The method, then: Briefly, for reconstituted lipids, we used a mixture of phospholipids, asolectin from soybean (Sigma-Aldrich, No. 11145). Asolectin (120 μg) was dissolved in chloroform and then evaporated under N2 gas to completely remove the solvent. Then, the lipids were suspended in 50 μL buffer A (20 mM HEPES-KOH pH 7.4, 100 mM NaCl, and 4% DDM) and sonicated for ˜1 min with a tip-sonicator. Next, dissolved membrane proteins (1 nmol) and MSP (50 μL, 1 mg/mL) (MSP1E3D1, Sigma-Aldrich, No. M7074) were added to the lipid suspension and mixed for ˜1 h while rotating in the dark at 4° C. Finally, we added 60 mg Bio-beads SM-2 (Bio-Rad, Hercules, CA, USA, No. 1523920) and dialyzed the samples in detergent overnight at 4° C. According to the manufacturer's protocol, nanodisc samples should be fractionated on a column to purify the nanodiscs based on size (˜10 nm in diameter).
A homemade HS-AFM operated in tapping mode was used (Shibata et al., 2017, 2018). An optical beam deflection detector detected the cantilever (Olympus, Tokyo, Japan: BL-AC10DS-A2) deflection using an infrared (IR) laser at 780 nm and 0.7 mW. The IR beam was focused onto the back side of the cantilever covered with a gold film through a ×60 objective lens (Nikon, Tokyo, Japan: CFI S Plan Fluor ELWD 60×). The reflected IR beam was detected by a two-segmented PIN photodiode. […]

B1: Wild-type ChRmine (M1-R304) (other)
chain: MAHAPGTDQMFYVGTMDGWYLDTKLNSVAIGAHWSCFIVLTITTFYLGYESWTSRGPSKRTSFYAGYQEEQNLALFVNFFAMLSYFGKIVADTLGHNFGDVGPFIIGFGNYRYADYMLTCPMLVYDLLYQLRAPYRVSCSAIIFAILMSGVLAEFYAEGDPRLRNGAYAWYGFGCFWFIFAYSIVMSIVAKQYSRLAQLAQDTGAEHSLHVLKFAVFTFSMLWILFPLVWAICPRGFGWIDDNWTEVAHCVCDIVAKSCYGFALARFRKTYDEELFRLLEQLGHDEDEFQKLELDMRLSSNGER
modifications: all-trans retinal covalently linked at K257 (Schiff base)
notes: Pump-like cation-conducting channelrhodopsin, purified from Sf9 cells in GDN/CHS detergent; It forms a homotrimer; The model covers residues 10-279; also called WT ChRmine; ChRmine WT
B1: the binding result is recorded as “binds”.
